Here are results for two molecules from publication PMC8964413 (Nature chemical biology, 2022).

Test [1] deals with unanchored wild-type K63-linked di-Ub (UniProt P0CG48). Put plainly: cell-based or functional assay.
In test [2] the target is donor ubiquitin (Ub^D), from His-TEV-Ub^WT (UniProt P0CG48 1-76, in the crystal: G76 isopeptide-linked to K92 of UBE2K). Description: crystal structure.

B1: UBE2K^WT (enzyme)
chain: MANIAVQRIKREFKEVLKSEETSKNQIKVDLVDENFTELRGEIAGPPDTPYEGGRYQLEIKIPETYPFNPPKVRFITKIWHPNISSVTGAICLDILKDQWAAAMTLRTVLLSLQALLAAAEPDDPQDAVVANQYKQNPEMFKQTARLWAHVYAGAPVSSPEYTKKIENLCAMGFDRNAVIVALSSKSWDVETATELLLSN
For B1, the “k cat/K m of tri-Ub formation, K63-Ub2 as acceptor” value in test [1] was determined as 418 M⁻¹ s⁻¹.

B2: UBE2K^C92K,K97R,D124C,C170S (enzyme)
chain: MANIAVQRIKREFKEVLKSEETSKNQIKVDLVDENFTELRGEIAGPPDTPYEGGRYQLEIKIPETYPFNPPKVRFITKIWHPNISSVTGAIKLDILRDQWAAAMTLRTVLLSLQALLAAAEPDCPQDAVVANQYKQNPEMFKQTARLWAHVYAGAPVSSPEYTKKIENLSAMGFDRNAVIVALSSKSWDVETATELLLSN
B2: the binding result in test [2] was “binds”.
